Paper PMC2115937

Biological target: epidermal growth factor receptor (EGF receptor kinase), rat liver (rat (endogenous in rat liver))
Assay: polyethylene glycol precipitation of receptor-bound radioligand

percent of 125I-EGF in endosomes that is receptor bound (10 ug EGF injected): 77%
Substance: epidermal growth factor (EGF) (from UniProt P01132 977-1029) (ligand)
